The test deals with FGFR1c extracellular domain-IgG fusion protein (human) (UniProt P11362). The experiment in a line: BIAcore real-time kinetic analysis, immobilized FGFR1c ECD, no heparin; approximate apparent affinity. Background: In SPR one partner is held on a chip, and binding of the other changes the refractive index at the surface.

Where no end group is shown, it is not given here.

Chain of FGFR1c extracellular domain-IgG fusion protein (human) (P11362 22-377): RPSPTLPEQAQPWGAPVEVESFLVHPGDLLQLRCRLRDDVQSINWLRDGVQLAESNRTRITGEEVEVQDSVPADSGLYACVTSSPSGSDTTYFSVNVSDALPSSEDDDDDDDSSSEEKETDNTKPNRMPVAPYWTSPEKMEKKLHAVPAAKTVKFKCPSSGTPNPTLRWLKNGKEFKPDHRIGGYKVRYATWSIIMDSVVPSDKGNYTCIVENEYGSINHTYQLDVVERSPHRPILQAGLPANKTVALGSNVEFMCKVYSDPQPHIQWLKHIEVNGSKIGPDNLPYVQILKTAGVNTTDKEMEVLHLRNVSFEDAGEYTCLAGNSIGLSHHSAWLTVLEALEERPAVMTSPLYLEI

B1: C19-Ig fusion protein (Fc fusion, part only; not given: linkers and human IgG1 Fc, not shown: a dimerising Fc or GST)
chain, part: AESGDDYCVLVFTDSAWTKICDWSHFRN
modifications: cysteine pairing not given here; also: homodimer, fused to Fc of human IgG1
For the molecule B1, the Kd was 90 nM.

Values taken from patent publication US20040054131A1.
